The assay has as its target T1, SARS-CoV-2 Wuhan-Hu-1 S蛋白 (Sino Biological，货号:40589-V08B1) (SARS-CoV-2 Wuhan-Hu-1, UniProt P0DTC2 14-1213).
T1 construct: extracellular domain
The experiment in a line: ELISA, S protein coated at 2 μg/mL, antibody at 1 μg/mL. A general note: ELISA stands for enzyme-linked immunosorbent assay.

B1: 抗新型冠状病毒SARS-CoV-2的广谱抗体(VSM12-37) (antibody, V domains shown)
VH: EVQLVESGGGLVQPGGSLRLSCAVSGFTVSSNYMSWVRQAPGKGLEWVSLIYSGGSTYYADSVKGRFTVSRDRSKNTLYLQMNSLRAEDTALYYCARDNPRVGSNYWGQGTLVTVSS
VL: DIQMTQSPSSLSASVGDRVTITCQASQDINNYLNWYQQKPGKAPKLLIYDASNLEAGVPSRFSGSGSGTDFTFTISSLQPEDIATYYCQQCDNVPLTFGGGTKVEIKR
notes: also called VSM12-37抗体
B1: the binding result is “binds”.

The values above are taken from patent CN118388640A (CHENZHOU NO 1 PEOPLES HOSPITAL, dated 2024).
